Residue numbers refer to the chain shown, from its start.
Molecular target: human prothrombin, P00734

B1: preproecarin S396, S170, His6 (pDOEC35) (protein)
chain: CSIILGSGNVNDYEVVYPQKVTALPKGAVQQPEQKYEDAMQYEFEVKGEPVVLHLEKNKELFSEDYSETHYSSDDREITTNPSVEDHCYYHGRIQNDAESTASISACNGLKGHFKLRGETYFIEPLKIPDSEAHAVYKYENIENEDEAPKMSGVTQDNWESDEPIKKTLGLIVPPHERKFEKKFIELVVVVDHSMVTKYNNDSTAIRTWIYEMLNTVNEIYLPFNIRVALVGLEFWCNGDLINVTSTADDTLHSFGEWRASDLLNRKRHDHAQLLTNVTLDHSTLGITFVYGMCKSDRSVELILDYSNITFNMAYIIAHEMGHSLGMLHDTKFCTCGAKPCIMFGKESIPPPKEFSSCSYDQYNKYLLKYNPKCILDSPLRKDIASPAVCGNEIWEEGEECDCGSPADCRNPCCDAATCKLKPGAECGNGECCDKCKIRKAGTECRPARDDCDVAEHCTGQSAECPRNEFQRNGQPCLNNSGYCYNGDCPIMLNQCIALFSPSATVAQDSCFQRNLQGSYYGYCTKEIGYYGKRFPCAPQDVKCGRLYCLDNSFKKNMRCKNDYSYADENKGIVEPGTKCEDGKVCINRKCVDVNTAYHHHHHH
For B1, the “Ecarin Activity, 48 Hours, +APMA” value was 7,526, the “Ecarin Activity, 48 Hours, -APMA” value was 12,127 and the “Ecarin Activity, 120 Hours, +APMA” value was 14,850. For the same protein, the “Ecarin Activity, 120 Hours, -APMA” value was 20,524 and the prothrombin converting activity was “Alteration of position 170 to serine resulted in constituitive activation of proecarin, which was partially inhibited by the addition of APMA”.

B2: preproecarin S396, His6 (pDOEC30) (protein)
chain: B1 chain with S152C
In the case of B2, the “Ecarin Activity, 48 Hours, +APMA” value is reported as 74,077, the “Ecarin Activity, 48 Hours, -APMA” value is reported as 20,079 and the “Ecarin Activity, 120 Hours, +APMA” value is reported as 164,602. For the same protein, the “Ecarin Activity, 120 Hours, -APMA” value was 28,372, the “conversion of prothrombin to thrombin by immobilized ecarin, Coomassie stained SDS-PAGE” value was “essentially complete (greater than 95%)” and the prothrombin converting activity was “Proecarin having a serine at position 396 was active in the absence of APMA, and the amount of activity increased several fold by pretreatment with APMA”.

B3: preproecarin P396, His6 (pDOEC34) (protein)
chain: B1 chain with S152C, S378P
B3 was tested, and the Ecarin Activity, 48 Hours, +APMA was 32, the Ecarin Activity, 48 Hours, -APMA was 36 and the Ecarin Activity, 120 Hours, +APMA was 0. For the same protein, the Ecarin Activity, 120 Hours, -APMA was 43 and the prothrombin converting activity was “Proecarin having the sequence disclosed in Nishida et al. (supra) had no activity in the presence or absence of APMA”.

B4: preproecarin S396, delta III, IV (pDOEC38) (protein)
chain: CSIILGSGNVNDYEVVYPQKVTALPKGAVQQPEQKYEDAMQYEFEVKGEPVVLHLEKNKELFSEDYSETHYSSDDREITTNPSVEDHCYYHGRIQNDAESTASISACNGLKGHFKLRGETYFIEPLKIPDSEAHAVYKYENIENEDEAPKMCGVTQDNWESDEPIKKTLGLIVPPHERKFEKKFIELVVVVDHSMVTKYNNDSTAIRTWIYEMLNTVNEIYLPFNIRVALVGLEFWCNGDLINVTSTADDTLHSFGEWRASDLLNRKRHDHAQLLTNVTLDHSTLGITFVYGMCKSDRSVELILDYSNITFNMAYIIAHEMGHSLGMLHDTKFCTCGAKPCIMFGKESIPPPKEFSSCSYDQYNKYLLKYNPKCILDSP
With B4 the Ecarin Activity, 48 Hours, +APMA was 0, the Ecarin Activity, 48 Hours, -APMA was 0 and the Ecarin Activity, 120 Hours, +APMA was 14. The Ecarin Activity, 120 Hours, -APMA was 0 and the prothrombin converting activity was “Deletion of the Cys-rich domain (positions 491 to 616) or the disintegrin and Cys-rich domains (398-616) abolished all ecarin activity in the presence or absence of APMA”.

B5: preproecarin S396, S170 delta III, IV (pDOEC40) (protein)
chain: B4 chain with C152S
For B5, the Ecarin Activity, 48 Hours, +APMA was 50, the Ecarin Activity, 48 Hours, -APMA was 0 and the Ecarin Activity, 120 Hours, +APMA was 0. For the same protein, the Ecarin Activity, 120 Hours, -APMA was 0 and the prothrombin converting activity was “Deletion of the Cys-rich domain (positions 491 to 616) or the disintegrin and Cys-rich domains (398-616) abolished all ecarin activity in the presence or absence of APMA”.

B6: preproecarin S396, delta IV (pDOEC37) (protein)
chain: CSIILGSGNVNDYEVVYPQKVTALPKGAVQQPEQKYEDAMQYEFEVKGEPVVLHLEKNKELFSEDYSETHYSSDDREITTNPSVEDHCYYHGRIQNDAESTASISACNGLKGHFKLRGETYFIEPLKIPDSEAHAVYKYENIENEDEAPKMCGVTQDNWESDEPIKKTLGLIVPPHERKFEKKFIELVVVVDHSMVTKYNNDSTAIRTWIYEMLNTVNEIYLPFNIRVALVGLEFWCNGDLINVTSTADDTLHSFGEWRASDLLNRKRHDHAQLLTNVTLDHSTLGITFVYGMCKSDRSVELILDYSNITFNMAYIIAHEMGHSLGMLHDTKFCTCGAKPCIMFGKESIPPPKEFSSCSYDQYNKYLLKYNPKCILDSPLRKDIASPAVCGNEIWEEGEECDCGSPADCRNPCCDAATCKLKPGAECGNGECCDKCKIRKAGTECRPARDDCDVAEHCTGQSAECPRNEFQR
In the case of B6, the Ecarin Activity, 48 Hours, +APMA is reported as 0, the Ecarin Activity, 48 Hours, -APMA is reported as 0 and the Ecarin Activity, 120 Hours, +APMA is reported as 68. The Ecarin Activity, 120 Hours, -APMA was 34 and the prothrombin converting activity was “Deletion of the Cys-rich domain (positions 491 to 616) or the disintegrin and Cys-rich domains (398-616) abolished all ecarin activity in the presence or absence of APMA”.

B7: preproecarin S396, S170, delta IV (pDOEC39) (protein)
chain: B6 chain with C152S
Protein B7 has an Ecarin Activity, 48 Hours, +APMA of 0, an Ecarin Activity, 48 Hours, -APMA of 0 and an Ecarin Activity, 120 Hours, +APMA of 0. The Ecarin Activity, 120 Hours, -APMA was 0 and the prothrombin converting activity was “Deletion of the Cys-rich domain (positions 491 to 616) or the disintegrin and Cys-rich domains (398-616) abolished all ecarin activity in the presence or absence of APMA”.

Source: patent US6413737
